# Measured values reported in patent US20150344570A1 (published 2015).
# T1: FcγRIIa R extracellular domain with C-terminal His tag (human, UniProt P12318 34-217)
# T1 construct: extracellular domain; also called FcgRIIa R; 2aR; not shown: His tag at the C terminus
# T1 sequence (looked up): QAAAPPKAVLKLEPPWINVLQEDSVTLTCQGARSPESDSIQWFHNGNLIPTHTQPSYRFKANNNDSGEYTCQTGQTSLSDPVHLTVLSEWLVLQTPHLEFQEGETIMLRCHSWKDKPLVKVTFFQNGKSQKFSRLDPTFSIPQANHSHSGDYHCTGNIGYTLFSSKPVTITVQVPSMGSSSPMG
# Target: T1, FcγRIIa R extracellular domain with …
# Experiment: SPR (Biacore), relative FcγRIIa R binding, GpH7-B3/GpL16-k0 = 100
# Method: Analysis of interaction between objective antibody and the FcγR was carried out using Biacore T100 (GE Healthcare). HBS-EP+ (GE Healthcare) was used as the running buffer, and the measurement temperature was set to 25° C. Chips produced by immobilizing the antigen peptide by the amine coupling method to a Series S Sencor Chip CM5 (GE Healthcare), or alternatively, chips produced by allowing preliminarily biotinylated antigen peptides to interact with and immobilize onto a Series S Sensor Chip SA (certified) (GE Healthcare) were used. Antibodies of interest were captured onto an antigen peptide-immobilized chip, and allowed to interact to each FcγR diluted with running buffer. To regenerate and repeatedly use the chip, the antibodies captured on the chip were washed off by reacting 10 mM glycine-HCl, pH 1.5.
row,Binder,Ho/Con_2aR
1,"GpH7-B3 variant K334_04F/GpL16-k0 (antibody, human IgG1, kappa, homodimerized: alteration in both H chains; also called Ho Ab K334_04F) heavy: not shown light: DIVMTQSPLSLPVTPGEPASISCQASESLVHSNRNTYLHWYLQKPGQSPQLLIYKVSNRFSGVPDRFSGSGSGTDFTLKISRVEAEDVGVYYCSQNTHVPPTFGQGTKVEIERTVAAPSVFIFPPSDEQLKSGTASVVCLLNNFYPREAKVQWKVDNALQSGNSQESVTEQDSKDSTYSLSSTLTLSKADYEKHKVYACEVTHQGLSSPVTKSFNRGEC",110 % of control
2,"GpH7-B3 variant S239_10E/GpL16-k0 (antibody, human IgG1, kappa, homodimerized: alteration in both H chains; also called Ho Ab S239_10E) heavy: not shown light: DIVMTQSPLSLPVTPGEPASISCQASESLVHSNRNTYLHWYLQKPGQSPQLLIYKVSNRFSGVPDRFSGSGSGTDFTLKISRVEAEDVGVYYCSQNTHVPPTFGQGTKVEIERTVAAPSVFIFPPSDEQLKSGTASVVCLLNNFYPREAKVQWKVDNALQSGNSQESVTEQDSKDSTYSLSSTLTLSKADYEKHKVYACEVTHQGLSSPVTKSFNRGEC",122 % of control
3,"GpH7-B3 variant P331_02A/GpL16-k0 (antibody, human IgG1, kappa, homodimerized: alteration in both H chains; also called Ho Ab P331_02A) heavy: not shown light: DIVMTQSPLSLPVTPGEPASISCQASESLVHSNRNTYLHWYLQKPGQSPQLLIYKVSNRFSGVPDRFSGSGSGTDFTLKISRVEAEDVGVYYCSQNTHVPPTFGQGTKVEIERTVAAPSVFIFPPSDEQLKSGTASVVCLLNNFYPREAKVQWKVDNALQSGNSQESVTEQDSKDSTYSLSSTLTLSKADYEKHKVYACEVTHQGLSSPVTKSFNRGEC",102 % of control
4,"GpH7-B3 variant K334_05P/GpL16-k0 (antibody, human IgG1, kappa, homodimerized: alteration in both H chains; also called Ho Ab K334_05P) heavy: not shown light: DIVMTQSPLSLPVTPGEPASISCQASESLVHSNRNTYLHWYLQKPGQSPQLLIYKVSNRFSGVPDRFSGSGSGTDFTLKISRVEAEDVGVYYCSQNTHVPPTFGQGTKVEIERTVAAPSVFIFPPSDEQLKSGTASVVCLLNNFYPREAKVQWKVDNALQSGNSQESVTEQDSKDSTYSLSSTLTLSKADYEKHKVYACEVTHQGLSSPVTKSFNRGEC",102 % of control
5,"GpH7-B3 variant P331_16H/GpL16-k0 (antibody, human IgG1, kappa, homodimerized: alteration in both H chains; also called Ho Ab P331_16H) heavy: not shown light: DIVMTQSPLSLPVTPGEPASISCQASESLVHSNRNTYLHWYLQKPGQSPQLLIYKVSNRFSGVPDRFSGSGSGTDFTLKISRVEAEDVGVYYCSQNTHVPPTFGQGTKVEIERTVAAPSVFIFPPSDEQLKSGTASVVCLLNNFYPREAKVQWKVDNALQSGNSQESVTEQDSKDSTYSLSSTLTLSKADYEKHKVYACEVTHQGLSSPVTKSFNRGEC",100 % of control
6,"GpH7-B3 variant S239_08L/GpL16-k0 (antibody, human IgG1, kappa, homodimerized: alteration in both H chains; also called Ho Ab S239_08L) heavy: not shown light: DIVMTQSPLSLPVTPGEPASISCQASESLVHSNRNTYLHWYLQKPGQSPQLLIYKVSNRFSGVPDRFSGSGSGTDFTLKISRVEAEDVGVYYCSQNTHVPPTFGQGTKVEIERTVAAPSVFIFPPSDEQLKSGTASVVCLLNNFYPREAKVQWKVDNALQSGNSQESVTEQDSKDSTYSLSSTLTLSKADYEKHKVYACEVTHQGLSSPVTKSFNRGEC",106 % of control
7,"GpH7-B3 variant L328_14T/GpL16-k0 (antibody, human IgG1, kappa, homodimerized: alteration in both H chains; also called Ho Ab L328_14T) heavy: not shown light: DIVMTQSPLSLPVTPGEPASISCQASESLVHSNRNTYLHWYLQKPGQSPQLLIYKVSNRFSGVPDRFSGSGSGTDFTLKISRVEAEDVGVYYCSQNTHVPPTFGQGTKVEIERTVAAPSVFIFPPSDEQLKSGTASVVCLLNNFYPREAKVQWKVDNALQSGNSQESVTEQDSKDSTYSLSSTLTLSKADYEKHKVYACEVTHQGLSSPVTKSFNRGEC",118 % of control
8,"GpH7-B3 variant P331_20W/GpL16-k0 (antibody, human IgG1, kappa, homodimerized: alteration in both H chains; also called Ho Ab P331_20W) heavy: not shown light: DIVMTQSPLSLPVTPGEPASISCQASESLVHSNRNTYLHWYLQKPGQSPQLLIYKVSNRFSGVPDRFSGSGSGTDFTLKISRVEAEDVGVYYCSQNTHVPPTFGQGTKVEIERTVAAPSVFIFPPSDEQLKSGTASVVCLLNNFYPREAKVQWKVDNALQSGNSQESVTEQDSKDSTYSLSSTLTLSKADYEKHKVYACEVTHQGLSSPVTKSFNRGEC",102 % of control
9,"GpH7-B3 variant K334_08L/GpL16-k0 (antibody, human IgG1, kappa, homodimerized: alteration in both H chains; also called Ho Ab K334_08L) heavy: not shown light: DIVMTQSPLSLPVTPGEPASISCQASESLVHSNRNTYLHWYLQKPGQSPQLLIYKVSNRFSGVPDRFSGSGSGTDFTLKISRVEAEDVGVYYCSQNTHVPPTFGQGTKVEIERTVAAPSVFIFPPSDEQLKSGTASVVCLLNNFYPREAKVQWKVDNALQSGNSQESVTEQDSKDSTYSLSSTLTLSKADYEKHKVYACEVTHQGLSSPVTKSFNRGEC",105 % of control
10,"GpH7-B3 variant P331_04F/GpL16-k0 (antibody, human IgG1, kappa, homodimerized: alteration in both H chains; also called Ho Ab P331_04F) heavy: not shown light: DIVMTQSPLSLPVTPGEPASISCQASESLVHSNRNTYLHWYLQKPGQSPQLLIYKVSNRFSGVPDRFSGSGSGTDFTLKISRVEAEDVGVYYCSQNTHVPPTFGQGTKVEIERTVAAPSVFIFPPSDEQLKSGTASVVCLLNNFYPREAKVQWKVDNALQSGNSQESVTEQDSKDSTYSLSSTLTLSKADYEKHKVYACEVTHQGLSSPVTKSFNRGEC",106 % of control
11,"GpH7-B3 variant P238_04F/GpL16-k0 (antibody, human IgG1, kappa, homodimerized: alteration in both H chains; also called Ho Ab P238_04F) heavy: not shown light: DIVMTQSPLSLPVTPGEPASISCQASESLVHSNRNTYLHWYLQKPGQSPQLLIYKVSNRFSGVPDRFSGSGSGTDFTLKISRVEAEDVGVYYCSQNTHVPPTFGQGTKVEIERTVAAPSVFIFPPSDEQLKSGTASVVCLLNNFYPREAKVQWKVDNALQSGNSQESVTEQDSKDSTYSLSSTLTLSKADYEKHKVYACEVTHQGLSSPVTKSFNRGEC",146 % of control
12,"GpH7-B3 variant L235_20W/GpL16-k0 (antibody, human IgG1, kappa, homodimerized: alteration in both H chains; also called Ho Ab L235_20W) heavy: not shown light: DIVMTQSPLSLPVTPGEPASISCQASESLVHSNRNTYLHWYLQKPGQSPQLLIYKVSNRFSGVPDRFSGSGSGTDFTLKISRVEAEDVGVYYCSQNTHVPPTFGQGTKVEIERTVAAPSVFIFPPSDEQLKSGTASVVCLLNNFYPREAKVQWKVDNALQSGNSQESVTEQDSKDSTYSLSSTLTLSKADYEKHKVYACEVTHQGLSSPVTKSFNRGEC",114 % of control
13,"GpH7-B3 variant K334_10E/GpL16-k0 (antibody, human IgG1, kappa, homodimerized: alteration in both H chains; also called Ho Ab K334_10E) heavy: not shown light: DIVMTQSPLSLPVTPGEPASISCQASESLVHSNRNTYLHWYLQKPGQSPQLLIYKVSNRFSGVPDRFSGSGSGTDFTLKISRVEAEDVGVYYCSQNTHVPPTFGQGTKVEIERTVAAPSVFIFPPSDEQLKSGTASVVCLLNNFYPREAKVQWKVDNALQSGNSQESVTEQDSKDSTYSLSSTLTLSKADYEKHKVYACEVTHQGLSSPVTKSFNRGEC",106 % of control

# Results, then the binder that gave them:
row,Ho/Con_2aR,Binder
1,100 % of control,"GpH7-B3 variant K334_02A/GpL16-k0 (antibody, human IgG1, kappa, homodimerized: alteration in both H chains; also called Ho Ab K334_02A) heavy: not shown light: DIVMTQSPLSLPVTPGEPASISCQASESLVHSNRNTYLHWYLQKPGQSPQLLIYKVSNRFSGVPDRFSGSGSGTDFTLKISRVEAEDVGVYYCSQNTHVPPTFGQGTKVEIERTVAAPSVFIFPPSDEQLKSGTASVVCLLNNFYPREAKVQWKVDNALQSGNSQESVTEQDSKDSTYSLSSTLTLSKADYEKHKVYACEVTHQGLSSPVTKSFNRGEC"
2,116 % of control,"GpH7-B3 variant P238_03V/GpL16-k0 (antibody, human IgG1, kappa, homodimerized: alteration in both H chains; also called Ho Ab P238_03V) heavy: not shown light: DIVMTQSPLSLPVTPGEPASISCQASESLVHSNRNTYLHWYLQKPGQSPQLLIYKVSNRFSGVPDRFSGSGSGTDFTLKISRVEAEDVGVYYCSQNTHVPPTFGQGTKVEIERTVAAPSVFIFPPSDEQLKSGTASVVCLLNNFYPREAKVQWKVDNALQSGNSQESVTEQDSKDSTYSLSSTLTLSKADYEKHKVYACEVTHQGLSSPVTKSFNRGEC"
3,103 % of control,"GpH7-B3 variant S239_18N/GpL16-k0 (antibody, human IgG1, kappa, homodimerized: alteration in both H chains; also called Ho Ab S239_18N) heavy: not shown light: DIVMTQSPLSLPVTPGEPASISCQASESLVHSNRNTYLHWYLQKPGQSPQLLIYKVSNRFSGVPDRFSGSGSGTDFTLKISRVEAEDVGVYYCSQNTHVPPTFGQGTKVEIERTVAAPSVFIFPPSDEQLKSGTASVVCLLNNFYPREAKVQWKVDNALQSGNSQESVTEQDSKDSTYSLSSTLTLSKADYEKHKVYACEVTHQGLSSPVTKSFNRGEC"
4,102 % of control,"GpH7-B3 variant P271_08L/GpL16-k0 (antibody, human IgG1, kappa, homodimerized: alteration in both H chains; also called Ho Ab P271_08L) heavy: not shown light: DIVMTQSPLSLPVTPGEPASISCQASESLVHSNRNTYLHWYLQKPGQSPQLLIYKVSNRFSGVPDRFSGSGSGTDFTLKISRVEAEDVGVYYCSQNTHVPPTFGQGTKVEIERTVAAPSVFIFPPSDEQLKSGTASVVCLLNNFYPREAKVQWKVDNALQSGNSQESVTEQDSKDSTYSLSSTLTLSKADYEKHKVYACEVTHQGLSSPVTKSFNRGEC"
5,108 % of control,"GpH7-B3 variant K334_19Q/GpL16-k0 (antibody, human IgG1, kappa, homodimerized: alteration in both H chains; also called Ho Ab K334_19Q) heavy: not shown light: DIVMTQSPLSLPVTPGEPASISCQASESLVHSNRNTYLHWYLQKPGQSPQLLIYKVSNRFSGVPDRFSGSGSGTDFTLKISRVEAEDVGVYYCSQNTHVPPTFGQGTKVEIERTVAAPSVFIFPPSDEQLKSGTASVVCLLNNFYPREAKVQWKVDNALQSGNSQESVTEQDSKDSTYSLSSTLTLSKADYEKHKVYACEVTHQGLSSPVTKSFNRGEC"
6,108 % of control,"GpH7-B3 variant L328_13S/GpL16-k0 (antibody, human IgG1, kappa, homodimerized: alteration in both H chains; also called Ho Ab L328_13S) heavy: not shown light: DIVMTQSPLSLPVTPGEPASISCQASESLVHSNRNTYLHWYLQKPGQSPQLLIYKVSNRFSGVPDRFSGSGSGTDFTLKISRVEAEDVGVYYCSQNTHVPPTFGQGTKVEIERTVAAPSVFIFPPSDEQLKSGTASVVCLLNNFYPREAKVQWKVDNALQSGNSQESVTEQDSKDSTYSLSSTLTLSKADYEKHKVYACEVTHQGLSSPVTKSFNRGEC"
7,106 % of control,"GpH7-B3 variant K334_13S/GpL16-k0 (antibody, human IgG1, kappa, homodimerized: alteration in both H chains; also called Ho Ab K334_13S) heavy: not shown light: DIVMTQSPLSLPVTPGEPASISCQASESLVHSNRNTYLHWYLQKPGQSPQLLIYKVSNRFSGVPDRFSGSGSGTDFTLKISRVEAEDVGVYYCSQNTHVPPTFGQGTKVEIERTVAAPSVFIFPPSDEQLKSGTASVVCLLNNFYPREAKVQWKVDNALQSGNSQESVTEQDSKDSTYSLSSTLTLSKADYEKHKVYACEVTHQGLSSPVTKSFNRGEC"
8,105 % of control,"GpH7-B3 variant P331_15Y/GpL16-k0 (antibody, human IgG1, kappa, homodimerized: alteration in both H chains; also called Ho Ab P331_15Y) heavy: not shown light: DIVMTQSPLSLPVTPGEPASISCQASESLVHSNRNTYLHWYLQKPGQSPQLLIYKVSNRFSGVPDRFSGSGSGTDFTLKISRVEAEDVGVYYCSQNTHVPPTFGQGTKVEIERTVAAPSVFIFPPSDEQLKSGTASVVCLLNNFYPREAKVQWKVDNALQSGNSQESVTEQDSKDSTYSLSSTLTLSKADYEKHKVYACEVTHQGLSSPVTKSFNRGEC"
